# Measurements as given in the RNAGym collection of RNA variant scans (doi:10.1073/pnas.2313332121).
# This sample holds only a part of the variants without activity.
# B1: TPR 5TU (parent)
# chain: GGAUCUUCUCGAUCUAACAAAAAAGACAAAUCUGCCACAAAGCUUGAGAGCAUCUUCGGAUGCAGAGGCGGCAGCCUUCGGUGGCGCGAUAGCGCCAACGUUCUCAACUAUGACACGCAAAACGCGUGCUCCGUUGAAUGGAGUUUAUCAUG
# Variants of: B1
# Assay: polymerase ribozyme fitness, log enrichment relative to wild type (log ratio); higher = more active; in vitro selection for triplet polymerase activity
# How it was run: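 A heterodimeric triplet polymerase ribozyme had each of its subunits mutagenized by PCR into a library, which was transcribed. One round of in vitro selection, done in triplicate, annealed each library with a biotinylated primer, its partner subunit and triplets, then incubated it frozen at −7 °C before gel excision of extended constructs, streptavidin-bead capture and RT-PCR. Fitness is the logarithm of genotype enrichment relative to wild-type enrichment, based on Illumina sequencing of inputs and outputs and inverse-variance-weighted replicate averages. A base-2 logarithm is used, and genotypes were kept only with ≥10 input reads and ≥1 read per output.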
row,Variant,polymerase ribozyme fitness (log ratio)
1,A12G C85A C118A G136U,-3.83
2,A12G G83U G92U A142G,-2.93
3,A12U G58U G83A C93A,≤ -4.2
4,A12G C14G G92C,-2.86
5,A12U U56A,-0.683
6,A12U G92A A98G C125G G128U,≤ -4.2
7,A12U G81C G84A A115U,≤ -4.2
8,A12G G80A C118U A119C A120G G143U,-3.12
9,A12U C85A,-1.85
10,A12U C85G,-1.91
11,A12U C85U,-0.742
12,A12U C51U,-2.53
13,A12U G92A,-1.81
14,A12U G92U,-1.64
15,A12U U144G,0.918
16,U13A C18G A30G G65U A91G A115C C118U U144G,≤ -4.2
17,U13C C14G C43G A91G A106U U109G A138G,-4.06
18,A12G C14G A17G C75U A91G C105U A106G A121U A137U,≤ -4.2
19,A12U U82C G86C,≤ -4.2
20,U13C C27U A37G C54U A106G U109G C123G G124A,-3.57
21,A12G U13G C38A A41U C95A U102C A137G,≤ -4.2

row,Variant,polymerase ribozyme fitness (log ratio)
1,U13C A37G G126C,-1.85
2,A12U C87U A119U,-1.23
3,U13A C105A A107C U134A,≤ -4.2
4,A12G U56A C76A G143U,-3.46
5,A12U A23C C54G U55G C79A G83U G92A G124C U145A,≤ -4.2
6,U13A A20G A28G G48A U146C,≤ -4.2
7,A12U U56A A115G,-2.11
8,A12U A17G C57A A98U,-0.729
9,A12G C27U A40U A73G C87G C95A G124U G136A,≤ -4.2
10,U13A A52G U82A,-0.721
11,U13A A22U U53A G62C A64U U90A A91C C103A A106G C108U G126C,≤ -4.2
12,A12U G25C A47G U56A C93G C108G,≤ -4.2
13,A12G G81A G92A C114A G152U,≤ -4.2
14,A12G G74C,-3.9
15,A12G U55A G71A G80C,≤ -4.2
16,U13C A19C A89U C95U U146G A150U,-2.94
17,A12U A39C A52G C57G,-4.2
18,A12G G83C,-0.586
19,A12U U56G A89G C93A A113G,-3.89
20,A12U A19C U44G U148C,≤ -4.2
21,A12U G46A C75U C87A C99U G117A,≤ -4.2

row,Variant,polymerase ribozyme fitness (log ratio)
1,A12G U77C,-3.98
2,A12G C14U G92U U111C A138U,≤ -4.2
3,U13A C27A C54A U56A G65C G92C A97G U101G G140U,≤ -4.2
4,U13C A24C U45G G84U U135C,≤ -4.2
5,U13A C38U G83C G140A,≤ -4.2
6,A12U A26C C35A U55C G59C C76A C93A U111C A138G U144A,≤ -4.2
7,A12U A37G C69G A122C G126A A150G,≤ -4.2
8,U13A A20U U77A,≤ -4.2
9,A12G U53G G59A C95G A98C U146A,-1.26
10,U13A U135A,-0.229
11,A12U G143U,-3.14
12,A12G C63U,-0.0387
13,U13C A30U C36G C51U U55A C87A G126U,≤ -4.2
14,A12U A19U C35A U61G C69U U78G G80C A97C G126U,≤ -4.2
15,A12G U151G,-4.06
16,A12U C85G C123U U127A,≤ -4.2
17,A12U G59A C75G U127G,-4.12
18,A12U C35A C79U C96A A110G C118U C125A,≤ -4.2
19,A12G G59A G94C,-0.564
20,A12U A28U A41U U53G U56G G84A A91G C93G G140U,≤ -4.2
21,A12U A28U U55G A66C G74C G80C C85A C87U C96U,≤ -4.2

row,Variant,polymerase ribozyme fitness (log ratio)
1,U13C A20C G50C,-3.15
2,A12G G59C,0.244
3,U13A G84A G136U,-2.59
4,U13A A41C A91U C96U,≤ -4.2
5,A12U G25U A37G A47C U77A C95G G141A,≤ -4.2
6,A12G A40U A60C G88U G117C,≤ -4.2
7,A12U U31G A40C A49C A60G C93U,≤ -4.2
8,A12U A17G C35A U44A A47C A52U C95U G152U,≤ -4.2
9,U13C C18A A40C U53A G83A,-2.56
10,A12U G50A C85A G88A A121G,≤ -4.2
11,A12G C36A U55G G94A G141C U148G,≤ -4.2
12,A12G G83A G126U U134C U148G,≤ -4.2
13,A12G C57U C87U C103G,-2.19
14,U13C A29U A52C G86C A107C U109A,≤ -4.2
15,A12U U102G,-3.28
16,A12G A98U,-0.71
17,A12G G58U C116U A150G,-1.58
18,A12G U56A U144A,0.103
19,A12U A97U,-0.954
20,A12U C18A C36U C57A C95U A97G A98U C125U,-3.95
